Experimental data from US7176188B2, “Method of lethally sensitizing human and animal cells” (UniversitéLaval, priority 2003, dated 2007).

Assay: PARG activity of bacterial extracts expressing recombinant protein (TLC release of 32P-ADP-ribose from 32P-poly(ADP-ribose))
Assay type: biochemical, C. elegans
Conditions: for PARG activity (qualitative): bacterially expressed His-tagged protein, 24 h at 37° C.
Protocol: Cultures of M15-pREP4 bacteria transformed with pQE-PME-3L, were grown overnight at saturation at 37° C. Fresh cultures (1000 ml) were started with 50-mL overnight cultures and grown at 37° C. at OD600 nm 0.600. Cultures were then induced with 1 mM isopropyl-1-thio-β-d-galactopyranoside (IPTG) at 37° C. for 2.5 h. M15-pREP4 bacteria transformed with vector alone were also treated with 1 mM IPTG at 37° C. for 2.5 h. Cultures were pelleted at 3000×g for 10 min at 4° C., resuspended in 10 ml extraction buffer (50 mM KPO4, pH 7.5, 50 mM Kcl, 10 mM β-mercaptoethanol, 0.1% triton X-100) and passed twice at 16,000 psi in a French Pressure Cell (SLM-AMINCO®, Rochester, N.Y.) maintained at 4° C. Extracts were centrifuged for 10 min at 1000×g at 4° C. and protein concentration of supernatants were determined. Each supernatant (23.7 mg/ml for M15+pQE-30 and 22.2 mg/ml for pQE-PME-3L) were analyzed on SDS-PAGE and assayed for PARG activity.
PARG activity was determined according to Ménard et al (1987, Biochem. Cel Biol. 65: 668–673). Ten μl of worm or bacterial extracts were assayed for 24 h at 37° C. in the presence of ^32P-poly(ADP-ribose) followed by a thin layer chromatography. Radiolabeled ADP-ribose units released from ADP-ribose polymers were quantified directly on the TLC using an Instant Imager Electronic Autoradiography device (Canberra-Packard). One unit of PARG is defined as the amount of enzyme required to liberate 1 nmol of ADP-ribose per min at 37° C. under assay conditions (Menard and Poirier, 1987, Biochem. Cell Biol. 65: 668–673). Radiographic X-OMAT film was exposed to the TLC plate and placed at −80° C. for 24 h.

Molecule | PARG activity (qualitative) | PARG activity compared to His-PME-4 (bacterial extracts, similar rate of bacterial expression)
His-PME-4: His-tagged recombinant C. elegans PARG PME-4 (SEQ ID NO:11) expressed in bacteria from pET23a-PME-4 (protein, His tag; PEPTIDE (1)...(485) PME-4) MDHENLMKYLEEFRSIRFQPDFQKVDAERNVRYCEITDFPISNISFELLETGVSQQWRNCDQNLFNEYLKTYKNGGYSQFEDLLFKIWGYSEEKERFDLPALKSFYRKMSEIVGEDEVLEKLARLVRITKSACEVLPEKIYRLVGDIESATFSHIQCASLIAWMFFSDTPRLSFIIILQKTTCVAVEKLKFLFTYFDKMSIDPPIGAVSFRKMRITHKQYLENWKLRETNLLPDVQVFDKMSIEETALCTQIDFANKRLGGGVLKGGAVQEEIRFMMCPEMMVAILLNDVTQDLEAISIVGAYVFSSYTGYSNTLKWAKITPKHSAQNNNSFRDQFGRLQTETVAIDAVRNAGTPLECLLNQLTTEKLTREVRKAAIGFLSAGDGFSKIPVVSGWWGCGAFRGNKPLKFLIQVIACGISDRPLQFCTFGDTELAKKCEEMMTLFRNNNVRTGQLFLIINSIGPPLNYSEQYVFDAIRAKINSTKA | display PARG activity | –
His-PME-3L: His-tagged recombinant C. elegans PARG PME-3L (SEQ ID NO:9) expressed in bacteria from pQE-PME-3L (protein, His tag; PEPTIDE (1)...(781) PME-3L) MSKKFIELGDPVTQDEKDYEDYVGVGFAHQVPTMKRRKLTEHGNTTESKEDPEEPKSRDVFVSSQSSDESQEDSAENPEIAKEVSENCENLTETLKISNIESLDNVTERSEHTLDNHKSTEPMEEDVNNKSNIDVAINSDEDDELVLEENNKEMRDGEQVQQDLFADDQELIEYPGIMKDTTTQLDITDSEVETAQKMEMIEETEADSTFVGEDSKNQRQSGTTSDEVDADSQINLATKTVRTSSSSFLSTVSTCEAPAKGRARMYQKELEKHVIAFTEGNLTLQPDLNKVDPDRNYRYCTIPNFPASQGKLREDNRYGPKIVLPQRWREFDSRGRRRDSYFYFKRKLDGYLKCYKTTGYFMFVGLLHNMWEFDPDITYKLPALEMYYKEMSELVGREEVLEKFARVARIAKTAEDILPERIYRLVGDVESATLSHKQCAALVARMFFARPDSPFSFCRILSSDKSICVEKLKFLFTYFDKMSMDPPDGAVSFRLTKMDKDTFNEEWKDKKLRSLPEVEFFDEMLIEDTALCTQVDFANEHLGGGVLNHGSVQEEIRFLMCPEMMVGMLLCEKMKQLEAISIVGAYVFSSYTGYGHTLKWAELQPNHSRQNTNEFRDRFGRLRVETIAIDAILFKGSKLDCQTEQLNKANIIREMKKASIGFMSQGPKFTNIPIVTGWWGCGAFNGDKPLKFIIQVIAAGVADRPLHFCSFGEPELAAKCKKIIERMKQKDVTLGMLFSMINNTGLPHKHFEFYVFDRISTYLSSSEDVESSKSSPSVSRA | display PARG activity | ~10 times
